T1: soluble mouse S-GPIHBP1 (acidic stretch and adjacent tyrosines replaced with an S-protein tag) (mouse, UniProt Q9D1N2 23-198, residues 32 to 48 replaced with the S-protein tag (KETAAAKFERQHMDS))
T1 sequence: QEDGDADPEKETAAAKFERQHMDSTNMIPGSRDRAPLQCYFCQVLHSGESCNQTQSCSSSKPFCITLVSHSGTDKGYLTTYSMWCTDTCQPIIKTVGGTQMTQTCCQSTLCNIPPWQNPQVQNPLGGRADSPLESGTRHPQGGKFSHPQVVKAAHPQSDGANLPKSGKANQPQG

T2: mouse lipoprotein lipase (LPL), recombinant, purified (mouse, UniProt P11152 28-474)
T2 construct: lipoprotein lipase, mouse; expressed in Drosophila S2 cells; also called mouse LPL; purified mouse LPL; source: Drosophila S2 cells, purified to homogeneity by heparin-Sepharose chromatography
T2 sequence (looked up): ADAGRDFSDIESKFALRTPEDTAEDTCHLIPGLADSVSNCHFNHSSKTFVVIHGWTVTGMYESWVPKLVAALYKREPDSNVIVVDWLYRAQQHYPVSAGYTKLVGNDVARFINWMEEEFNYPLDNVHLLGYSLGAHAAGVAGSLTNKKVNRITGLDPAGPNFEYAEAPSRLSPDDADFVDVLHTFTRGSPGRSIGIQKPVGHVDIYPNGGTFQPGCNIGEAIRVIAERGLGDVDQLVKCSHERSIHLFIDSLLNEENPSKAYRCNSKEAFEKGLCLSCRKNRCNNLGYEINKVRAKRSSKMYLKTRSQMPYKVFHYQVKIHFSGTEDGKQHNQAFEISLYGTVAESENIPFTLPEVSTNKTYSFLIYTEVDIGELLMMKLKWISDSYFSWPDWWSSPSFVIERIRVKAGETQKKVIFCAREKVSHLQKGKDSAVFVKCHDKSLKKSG

B1: mouse lipoprotein lipase (LPL), recombinant, purified (enzyme)
chain: T2 sequence (looked up)
B2: soluble WT mouse GPIHBP1 (residues 23-198) (domain or fragment, UniProt Q9D1N2 23-198, looked up)
chain: QEDGDADPEPENYNYDDDDDEEEEEETNMIPGSRDRAPLQCYFCQVLHSGESCNQTQSCSSSKPFCITLVSHSGTDKGYLTTYSMWCTDTCQPIIKTVGGTQMTQTCCQSTLCNIPPWQNPQVQNPLGGRADSPLESGTRHPQGGKFSHPQVVKAAHPQSDGANLPKSGKANQPQG
modifications: sulfated tyrosines in the acidic domain (Tyr35, Tyr37): one half of the molecules contained 2 sulfated tyrosines, the other half only 1
notes: lacks the carboxyl-terminal signal peptide that triggers the addition of a GPI anchor; Homogeneous and monodisperse preparation after removal of low levels of oligomers by SEC; also called WT-GPIHBP1; purified WT-GPIHBP1

How the values were obtained:
[1] = biological target: T1, soluble mouse S-GPIHBP1 (acidic stretch …); experiment: SPR; 750 mM NaCl
[2] = biological target: T1, soluble mouse S-GPIHBP1 (acidic stretch …); experiment: SPR; 150 mM NaCl
[3] = biological target: T1, soluble mouse S-GPIHBP1 (acidic stretch …); experiment: SPR; LPL bound to heparin DP4, 150 mM NaCl
[4] = biological target: T1, soluble mouse S-GPIHBP1 (acidic stretch …); experiment: SPR; LPL bound to heparin DP4, 150 mM NaCl; remark: listed apart in the source
[5] = biological target: T1, soluble mouse S-GPIHBP1 (acidic stretch …); experiment: SPR; 750 mM NaCl; remark: listed apart in the source
[6] = biological target: T1, soluble mouse S-GPIHBP1 (acidic stretch …); experiment: SPR; 150 mM NaCl; remark: listed apart in the source
[7] = biological target: B1; experiment: SPR; 750 mM NaCl
[8] = biological target: B1; experiment: SPR; 150 mM NaCl
[9] = biological target: B1; experiment: SPR; 750 mM NaCl
[10] = biological target: T2, mouse lipoprotein lipase (LPL), …; experiment: SPR; Biacore T200; mouse LPL captured on the chip with immobilised antibody 27A; WT-GPIHBP1 (0.25-4 nM) or S-GPIHBP1 (2-32 nM) injected, single-cycle kinetics, 50 μL/min, 20°C; 10 mM HEPES pH 7.4, 150 mM NaCl, 4 mM CaCl2, 0.05% P20, 0.2 mg/mL BSA; details: both partners purified
[11] = biological target: B1; experiment: SPR; 150 mM NaCl

For B1, the koff [1] was 0.0495 s⁻¹, the Kd [2] was 107 nM and the koff [3] was 0.0211 s⁻¹. For the same binder, the Kd [4] was 290 nM, the Kd [5] was 183 nM and the koff [6] was 0.0167 s⁻¹.

With B2 the koff [7] was 0.0143 s⁻¹, the Kd [8] was 0.93 nM and the Kd [9] was 20 nM. For the same binder, the binding result [10] was “binds” and the koff [11] was 0.0125 s⁻¹.

— PMC8884915, “Electrostatic sheathing of lipoprotein lipase is essential for its movement across capillary endothelial cells” (The Journal of Clinical Investigation, 2022)
